From the nanobody polyreactivity screen of Harvey et al. (2022) come the findings set out here.

The series can be described thus: yeast display, Sf9 membrane polyspecificity reagent, FACS + sequencing; frameworks hold sequencing errors. The method, boiled down:
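Galactose-induced (36–48 hours) yeast carrying a synthetic nanobody display library were exposed to 10% biotinylated, detergent-solubilized Sf9 membrane reagent at 4 °C for 1 hour. FACS followed streptavidin microbead enrichment, using low and high (top ~1%) gates for expression (anti-HA) and reagent binding (streptavidin). Colony PCR, MiSeq 2 × 250 sequencing and CDR-length filtering followed. Labels for polyreactivity reflect the gate of origin.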
On to “QVQLVESGGGLVQAGGSLRLICAASGRTFSGYAMGWYRPAPGKERELVAAINWSTGSTYYADSVKGRFTISRDNAQNTVYLQMNSLKPEDTAVYYCAAGYYYYGNGRIVQYEYWGQGTQVTVSS”, for which the “polyreactivity (PSR sort gate)” value was “high polyreactivity”.
The same measure for “QFQLVESGGGLVQAGGSLRLSCAASGSIFKYNAMGWYRQAPGKEREFVAAISSSSGNTYYADSVKGRFTISRDNAKNTLYFQMNSLKPEDTAVYYCAADASRPRIPEMYYWGQGTQVTVSS”: “high polyreactivity”; for “QVQLVESGGGLVQAGGSLRLSCAASGSIFKYYSMGWYRQAPGKERELVADISRSGGRTYYADSVKGRFTISRDNAKNTVYLQMNSLKPEDTAVYYCAALDTYQYFRILYGTYEYWGQGTQVTVSS”: “high polyreactivity”.
As to “QVQLEESGGCLVQAGGSLRLSCAASGRIFGSYTMGWYRQAPGKERELVAAISDSGGSTYYADSVKGRFSISRDNAKNTVYLQMNSLKPEDTAVYYCNADWSWYNYYDFDYWGQGTQVTVSS”, the “polyreactivity (PSR sort gate)” value was “low polyreactivity”.
The entry for “QVQLVESGGGLVQAGGSLRLSSAASGRIFPGYAMGWYRQAPGKEREFVAAITRSGGRTYYADSVKGRFTISRDNAKNTVYVQMNSLKPEDTAVYYCNRVYEYWSEYDYWGQGTQVTVSS” is “high polyreactivity”; for “QVQLVESGGGLVQAGGRLRLSCAASGRIFNHYAMGWYRQAPGKERELVAAITFSGGSTYYADSVKGRFTISRDNAKNTVHLQMNSLKPEHTAVYYCANRFSYRYGLQYDYWGQGTQGTVSS” it is “high polyreactivity”; for “QVQLVESGGGLVQAGGSLRLSCAASGFIFSYYAMGWYRQAPRKERELVAAISKRGGGTYYADSVKGRFTISRDNAKNTVYLQMNSLKPEDTAVYYCNKDGGYGTGSSREYDSWGQGTQVTVSS” it is “high polyreactivity”.
The same measure for “QVQLVESGGGLVQARGSLRLSCAASGSIFAYNAMGWYRQAPGKERELVARISNRSGRTYYADSVKGRFTISRDNAKNTVYLLMNSLKPEDTAVYYCGVVAGLGTYRRYGYCGQGTQVTVSS”: “high polyreactivity”; for “QVQLVESAGGLVQAGGSLRLSCSASGTIIWFYAMGWYRQAPGKERELVAAITRSGGSTYYADSVKGRFTISRDNAKNTVYLQMNSLKPEDTAVYYCAAGTVDYRGYFEMYYWGQGTQVTVSS”: “low polyreactivity”.
The entry for “QVQLVESGGGLVQAGGSLSLSCAASGGTFSYYAMGWYRQAPGKGELVAAISSGGSTNYADSVKGRFTISRDNAINTAYLQMNSLKPEDTAVYYCADRYRFWGPYNYWGQGTQVTVSS” is “high polyreactivity”; for “QVQLVESGGRLVQAGGSLRLSSAASGSTFYVYTMGWYRQAPGKEWELVAAISSGSSTNYADSVKGRFTISRDNAKNTVYLQMNSLQPEDTAVYYCAATRFSYVFPYRYDYWGQGTQVTVSS” it is “low polyreactivity”; for “QVQLVESGGGLVQAGGSLRLSCAASGSIFYYYAMGWYRQAPGKERELVAAISTGGGSTYYADSVKGRFTISRDNAKNTVYLQINSLKPEDTAVYYCAAPWGYYSSFTDDYWGHGTQVTVSS” it is “low polyreactivity”.
For “QVQLVESGGGLVQAGVSLRLSCAASGFIFNIYAMGWYRQAPGKERELVAAISWRGGSTYYADSVKGRFTISRDNAKNTVYLQMNSLKPEYTAVYYCDVEDVWVGVFGDYDYWGEGTQVTVSS”, the “polyreactivity (PSR sort gate)” value was “low polyreactivity”.
The entry for “QVQLVESGGGLVQAGGSLRLSCAASGTIFQQYAMGWYRQAPGKERELVAAISYSGGTTYYADSVKGRFTISRDNAKNTVYLQMNSLKPEYTSVYYCAAYYPSGSYDYYWGQGTQVTVSS” is “low polyreactivity”; for “QVQLVESGGGLVQAGGSLRLSCAASGRIFGRNAMGWYRQAPGKERELVAAISSSGGRTYYADSVKGRFSISRDNAKNTVYLQMMSLKPEDTAVYYCAAVGSLYYYRYDYWGQGTQVTVSS” it is “high polyreactivity”; for “QVQLVESGGGLVQAGGSLRLSCAASGSIFSYYAMGWYRQAPGKERELVATITSSGSTYADSVKGRFTISRDNAKNTVYLQMNSLKPEDTAVYYCNADSGYSEYWGVDVAYDYWGQGTQVTVSS” it is “low polyreactivity”.
For “QVQLVESGGGLVQAGGSLRLSCSASGNIFKRYTMGWYRQAPGKERELVAAISGGDSTNYADSVKGRFTISRDNAKKTVYLQMNCLKPEDTAVYYCAGGGLTLWHGYILGYWGQGTQVTVSS”, the “polyreactivity (PSR sort gate)” value is “low polyreactivity”.
The same measure for “QVQLVESGGGLVQAGASLRLSCAASGRTFYNYAMGWYRQARGKEREFVASMTTSGGSTYYADSVKGRFTISRDNAKNTVYLQMNSLKPEDTAVYYCARRAYRSWTGNSYEYYYWGQGTQVTVSS”: “high polyreactivity”; for “QVQLVETGGGLVQAGGSLRLSCAASGSIFHYYAKGWYRQAPGKERELVAAISWSGVTTYYADSVKGRFTISRDNAKNTVYLQMNSLKPEDTAVYYCAADSWRYPYYYWGQGTQVNVSS”: “high polyreactivity”; for “QVHLVESGGGLVQAGGSLRVSCAASGSIFPYAMGCYRQAPGKEREFVAAITSGVRTNYADSVKGRFTISRDNAKNNVYLQINSLKPEDTAVYYCAARYFPHYYSKYDYWGPGTQVTVSS”: “low polyreactivity”.
The entry for “QVQLVESGGGLVQAGGSLRLSCAASGRIFSFNAMGWYRQAPGKERELVATIRTDGTTNYADSVKGRFTISRDNAKNTVYLQMNSLKPEDSAVYYCATDSGWSTYDYWGQGTQVTVSS” is “high polyreactivity”; for “QVQLVESGGGLVQAGGSLRLSCAASGRIFRYYAMGWYRQAPGIERELVAAISYRGGSTYYADSVKGRFTISRDNAKNTVYLQMNSLKPEDTAVYYCNIVPRIDTRYDYWGQGTQVTVSS” it is “high polyreactivity”.
The entry for “QDQLVESGGGLVQAGGSLRLICAASGRTFNRYGMGWNRQATGKERELVASITSGGSTNYADSVKGRFTISRDNAKNNVYLQMNSLKLEDTAVYYCAKRSIGRYPRTYDYWGQGTQVTVSS” is “low polyreactivity”; for “QVQLVESGGGLVHAGGSLRLSCAASGSIFDWNAMGWYTQAPGKERELVATISWDGGSTYYADSVKGRFTISRDNAKNTVYLQMNSLKPEDTAVYYCATVFTGKPAFYARTKYDYWGQRTQVTVSS” it is “low polyreactivity”.
“QVQLVESGGGLVQAGGSLRLSCAASGIIFRSYAMGWYRQAPGKERELVAGISLSGGSTYYADSVKGRFTISRDNAKNTVYLQMNSLKPEDTAVYYCATRNHYFRALRYGYWGQGTQVTVSS”: the “polyreactivity (PSR sort gate)” value is recorded as “high polyreactivity”.
The entry for “QVQLVESGGGLVQAGGSLRLSCAASGSTFSHNAMGWYRQAPGKERELVAAISSDGTTYYADSVKGRFTISRDNAKNTVYLQMNSLKPEDTAVYYCNKTRWTQRTSFDYWGQGTQVTVSS” is “low polyreactivity”; for “QVQLVESGGGLVQAGGSLRLSCAASGFTFIGYAMGWYRQAPGKERELVAAITWRGGRTYYADSVKGRFTISRDNAKNTVYLQMNSLKPEDTAVYYCAADGYTVVNSYYWGQGTQVTVSS” it is “high polyreactivity”; for “QVQLVESGGGLVQAGGSLRLSCAASGRSSTRNAMGWYRQAPGKERELVAAITRSGGGTYYADSVKGRFTISRDNAKNTVYLQMNSLKPEDTAVYYCAADQLSPSDGYEYWGQGTQVTVSS” it is “low polyreactivity”.
The same measure for “QVQLVESGGGLDQAGGSLRLSCAASGRTFWNYAMGWYRQAPGKERELVAVIRFSDGSTYYADSVKGRFTISRDNAKNTVYLQMNSLKPEDTAVYYCAAKGPRRWASGFDYWGQGTQVTVSS”: “low polyreactivity”; for “QVQLVESGGGLVQAGGSLRLSCAASGSTFSGYAMGWYRQAPGKERELVAAITSDGSTYYADSVKGRFTISRDNAKNTVYLQMNSLKPEDTAVYYCAVGIPYRGRQGYYGYYTYDYWGQGTQVTVSS”: “high polyreactivity”.
